The text below walks through data of the nanobody polyreactivity screen of Harvey et al. (2022).

A short description of the data set: yeast display, Sf9 membrane polyspecificity reagent, FACS + sequencing; frameworks hold sequencing errors. Put shortly: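 Genes from sorted yeast were amplified by colony PCR, read by MiSeq 2 × 250 sequencing and filtered on CDR length. These cells carried a synthetic nanobody library in Saccharomyces cerevisiae BJ5465 and were sorted by FACS into low and high (top ~1%) gates on anti-HA and streptavidin fluorescence. Polyreactivity is labelled according to the gate of origin.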
For the sequence “QVQLVESGGGLVQAGGSLRLSCAASGSIFYLYAMGWYRQAPGKERELVAGIRYRGGSTYYADSVKGRFTISRDNAKNTVYLQMNSLKPEDTAVYYCAAEYGDGRYWSYDYWGQGTQVTVSS”, the “polyreactivity (PSR sort gate)” value is reported as “high polyreactivity”.
On to “QVQLVESGGGLVQAGGSLRLSCAASGSIFYLYAMGWYRQEPGKERELVAAITSGDSTTYADSVKGRFTISRDNAKNTVYLQMNSLIPEDTAVYYCAADWPGLVGYHNSAENDYWGQGTQVTVSS”, for which the “polyreactivity (PSR sort gate)” value was “low polyreactivity”.
For the sequence “QVQLVESGGGLVQAGGSLRLSCAASGSIFYLYTMGWYRQAPGKERELVASITYSGGTYYADSVKGRFTISRDNAKNTVYLQMNSLKPEDTAVYYCNAHIPTNRSYVPEVRGEYDYWGQGTQVTVSS”, the “polyreactivity (PSR sort gate)” value is reported as “low polyreactivity”.
For “QVQLVESGGGLVQAGGSLRLSCAASGSIFYNAMGWYRQAPGKERELVAAISYRGGRTYYADSVKGRFTISRDNAKNTVYLQMNSLKPEDTAVYYCAADSTVGRYPYDYWGQGTQVTVSS” the value was “high polyreactivity”; for “QVQLVESGGGLVQAGGSLRLSCAASGSIFYNAMGWYRQAPGKERELVAAITSGGRTYYADSVKGRFTISRDNAKNTVYLQMNSLKPEDTAVDYCAADVRRVRVGKYDYWGQGTQVTVSS”, “high polyreactivity”; for “QVQLVESGGGLVQAGGSLRLSCAASGSIFYNNAMGWYRQAPGKERELVAAISLRGGSTYYADSVKGRFTISRDNAKNTVYLQMNSLKPEDTAVYYCAAGVRSPFRGGYYWGQGTQVTVSS”, “high polyreactivity”.
“QVQLVESGGGLVQAGGSLRLSCAASGSIFYNYSMGWYRQAPGKERELVATITRSDGSTYYADSVKGRFTISRDNAKNTVYLQMNSLKPEDTAVYYCNADSLWDRAFGYYYWGQGTQVTVSS”: the “polyreactivity (PSR sort gate)” value is reported as “low polyreactivity”.
Consider “QVQLVESGGGLVQAGGSLRLSCAASGSIFYPNAMGWYRQAPGKERELVAAISIGGGRTYYADSVKGRFTISRDNAKNTVYLQMNSLKPEDTAVYYCAATRVDSDDRTRFYYWGQGTQVTVSS”, for which the “polyreactivity (PSR sort gate)” value was “high polyreactivity”.
As to “QVQLVESGGGLVQAGGSLRLSCAASGSIFYPNVMGWYRQAPGKERELVATISRGGTTNYADSVKGRFTISRDNAKNTVYLQMNRLKPEDTAVYYCAAPIGDVYVGKGYDSWGQGTQVTVSS”, the “polyreactivity (PSR sort gate)” value is on record as “low polyreactivity”.
Take “QVQLVESGGGLVQAGGSLRLSCAASGSIFYPYAMGWYRQAPGKERELVAAISRSGGSTRYADSVKGRFTISRDNAKNTVYLQMNSLKPEDTAVYYCAVRVFYGVGLIGYYYWGQGTQVTVSS”: the “polyreactivity (PSR sort gate)” value is given as “high polyreactivity”.
For “QVQLVESGGGLVQAGGSLRLSCAASGSIFYPYAMGWYRQAPGKERELVAAISYNGGSTYYADSVKGRFTISRDNAKNTVYLQMNSLKPEETAVYYCAARPYHGKLDYWGQGTQVTVSS” the value was “low polyreactivity”; for “QVQLVESGGGLVQAGGSLRLSCAASGSIFYPYAMGWYRQAPGKERELVAVINDTGSTYYADSVKGRFTISRDNAKNTVYLQMNSLKPEETAVYYCNTATYVDSFPDPGDHWGQGTQVTVSS”, “low polyreactivity”.
Regarding “QVQLVESGGGLVQAGGSLRLSCAASGSIFYPYVMGWYIQAPGKESELVASISRRGGRTYYADSVKGRFTISRDYAKNTVYLEMNSLKPEDTAVYYCAKRTYDSFYGYYYWGQVTQVTVSS”, the “polyreactivity (PSR sort gate)” value is given as “high polyreactivity”.
Take “QVQLVESGGGLVQAGGSLRLSCAASGSIFYQNVMGGYRQAPGKERELVAAISSSGDSTYYADSVKGRFTISRDNAKNTVYLQMNSLKPEDTAVYYCAAEPEYVSGPYDYWGQGTQVTVSS”: the “polyreactivity (PSR sort gate)” value is listed as “low polyreactivity”.
Under “QVQLVESGGGLVQAGGSLRLSCAASGSIFYQYAMGWYRQAPGKERELVAAISQNGGRTYYADSVKGRFTISRDNAKNKVYLQMNRLKPEDTAVYYFAARHAPTRYGYWGQGTEVTVSS” stands “high polyreactivity”; under “QVQLVESGGGLVQAGGSLRLSCAASGSIFYRNAMGGYRQAPGKERELVAAIAGTGGSTYYADSVKGRFTISRDNAKNTVYLQMNSLKPEDTAVYYCASGVTYRHDYWRQGTQVTVSS”, “high polyreactivity”.
